Series [1] has as its target T1, alpha-thrombin (Homo sapiens, UniProt P00734;P00734 P00734:328-363,P00734:364-622). Kind of series: 3MI signal of streptavidin-aptamer complex; AlexaFluor 430 up 1.9-fold.
In series [2] the target is PDGF-BB (platelet-derived growth factor B homodimer) (UniProt P01127 P01127:82-190). Kind of series: saturating protein. Particulars: chain copies: 2 stated, three-helix junction.
In series [3] the target is T1, alpha-thrombin. In words: 3MI fluorescence at saturating protein.
Series [4] deals with T1, alpha-thrombin. Kind of series: 3MI signal, 350 nm excitation; AlexaFluor 430 FRET signal up 2.9-fold.
Series [5] deals with T1, alpha-thrombin. Kind of series: 6MAP fluorescence at saturating protein.

Sequence of PDGF-BB (platelet-derived growth factor B homodimer) (P01127 82-190, one chain of several): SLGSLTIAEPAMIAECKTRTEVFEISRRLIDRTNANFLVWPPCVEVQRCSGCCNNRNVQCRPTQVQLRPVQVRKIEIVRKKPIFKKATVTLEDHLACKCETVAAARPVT

B1: thrombin aptamer 3MI-7 biotin (ssDNA)
DNA: GGTTGGTGTGGTTGG
modifications: n at position 7 is 3-methylisoxanthopterin; 5' 40-atom linker [7 (3-methylisoxanthopterin replacing T); 5' 40-atom linker with biotin left out]
Regarding B1, the binding signal with alpha-thrombin [1] was ~7.1 fold fluorescence increase.

B2: PDGF-B aptamer 6MAP-22 (ssDNA)
DNA: CACAGGCTACGGCACGTAGAGCATCACCATGATCCTGTG
modifications: n at position 22 is 6MAP replacing C [22 (6MAP replacing C)]
As for B2, the binding signal in series [2] (label: 6MAP) was 6.7 fold fluorescence increase.

B3: PDGF-B aptamer 3MI-22 (ssDNA)
DNA: CACAGGCTACGGCACGTAGAGCATCACCATGATCCTGTG
modifications: n at position 22 is 3-methylisoxanthopterin replacing C [22 (3-methylisoxanthopterin replacing C)]
As for B3, the binding signal in series [2] (label: 3MI) was 2.5 fold fluorescence increase.

B4: thrombin aptamer 3MI-7 (ssDNA)
DNA: GGTTGGTGTGGTTGG
modifications: n at position 7 is 3-methylisoxanthopterin replacing T [7 (3-methylisoxanthopterin replacing T)]
As to B4, the binding signal with alpha-thrombin [3] was 9.7 fold fluorescence increase.

B5: thrombin aptamer 3MI-7 AlexaFluor 430 (ssDNA)
DNA: GGTTGGTGTGGTTGG
modifications: n at position 7 is 3-methylisoxanthopterin; 5' 21-atom amino linker [7 (3-methylisoxanthopterin replacing T); 5' 21-atom amino linker with AlexaFluor 430 left out]
B5: the binding signal in the series with alpha-thrombin [4] is ~7.5 fold fluorescence increase.

B6: thrombin aptamer 6MAP-7 (ssDNA)
DNA: GGTTGGTGTGGTTGG
modifications: n at position 7 is 4-amino-6-methyl-pteridone (6MAP) replacing T [7 (6MAP replacing T)]
For B6, the binding signal with alpha-thrombin [5] is 32.9 fold fluorescence increase.

For the origin of these results see patent US20090054250, “Methods to create fluorescent biosensors using aptamers with fluorescent base analogs” (published 2009).
